# Results as given in the DeepSol protein solubility set.
# Experiment: soluble on expression in E. coli; label from the status in PepcDB or PDB records
row,Sequence,soluble on expression in E. coli
1,MAHHHHHHMQDVDEMKYLLPNLKQPITSIQVHSWTGTKESYILESKDYVLGEGMPEKCDAIATDCFLSGFTDIGKCFQCKLLMQEKNINDSCFKYVSSNQKELIKKQLKITAQDDEESSEYHLSESIKNLLKNIYKKNNDDNKKKELLHFENVNSALKSELLNYCNLLKEVNMNGVLKDHQLGNVQDVFNNLTKLLEEHKEENDNVLYHKMKNEALCLKNVNDWMKNKTGLLLPQLSYDLTYKNNNFTEFTQNKSYTSQNIVDKLYCNHEYCNRLKDHNNCISKINVEDQKNCALSWAFASKYHLETIKCMKGYEPLNASVLYVTNCLKNKNKDVCTEGSNPLVFLETIEEKGFLPTESNYPYDQSKVGDICPQLQNDWDNVFENTKVLDYNNGPFSVGTKGYIAYESEAFQKDMHSFVKLVKDEIMNKGSVIAYVKAENVLGYELNGKKVQNLCGDKTPDHVVNIVGYGNYINNKGEKKSYWIVRNSWGKYWGDDGYFKVDMYGPSTCEDNFIHTVVVFNVQVPINEKFDKKEHDIYNYYLKTSPEFYHNLYYKTFNSNKEEKSMNKNSYVYGQDTTPVENEAPRSGVQKPTELSSTESQTVSPPNESQTESLLSGGSQVTNPTLTQSTSSSSGQQETGPLSTQGLSPATGDPKGKEQEASPAEGLSGVLNPTKEVTSEEKIQIIHLLKHIKNSKIRRGLVKYNHEFEVGDNSCSRSTSKNAEMHDECVNICEKYWPECRGTAVPGYCLSTHDDKNECDFCYV,not soluble
2,MAHHHHHHMQQQQQVPVGLQLMRQPYRATAEQFQRFIVGLDAVLNQWTALHLVSQHCDLSALTSMYRELVSWFQKDGEVYSDDLEIFFENFFGEARSVIVEDDSMKEVGDVLHDMYCRCCQNDFSTVERYVASLEVYRRVNPVQLSMNVGGADDEDELAGAGAMSNTYDGVVGNEEEEMETMGDGLDMKDEVEESEQRKKRRSKKRKNAYERDADGWCVVRN,not soluble
3,MAHHHHHHMQRNWVLLPQTVRAGDAPKSSAVRTPTRPLPYVCLKSNDGMEFVLPEVAARQSKMLAMLLDAVYSLPERGGFAEPTNARGEQHTTVHASNNIGTMPCIPLEVLSGRILELVCRYLVQRSTSDVNSTDEFALLGELNPTSSSDQDIVLGLLMASDYLDC,soluble
4,MAHHHHHHMQTVPSFQKTTSFHCSKAGRVLYSFREASRISGTHLPIVSAVDSYTLDSVFSEEVRPSFKSFAVDPSDRYCAAILDQDIDSVIRLFSLSAGPYPDHGAFASPAVQEEQDSAMGADEEEMEQWSIEDDDYDTDDSTDSNDDEFEEDEDDDDDSYDEEDAEEEFEEWEEEDEEESSPGTGSGSDEQEGTQASSRHAN,soluble
5,MAHHHHHHMRAAPTRLAPSTVASLGRSHCGSQAYHLDAAGAAGWRRRRRLTGVSMTTTHTVAPAVSALPFSLSTARRTYYWPYPENLVPEGATTSPFQSSPVPSVRERIIREYALGPLFGSRTPCCVLGFAGTARDVAACKRDVRRWVARALGKSEADVELGALVQAKEMLLHRSGTDESPRLGDGPGSRPDAEQRRVTRYARLPVQARTLLEVYLPGEEHGEVDAAADADATILAHGYFLQEQLHRHMTTTASSGSDPTGRRDSEDCQPEEPARKMQSHCQGCSEPNDEADVKSSVAALHDVCGVIYCEVPVLDESDFAFDQLCGKEVDDETTERVTDRWTRRAMQQQPQL,soluble
6,MAHHHHHHMRLTPLRCSAAAFHFTSLLLQGSGGGYRFFEDMYPKHDPAPRYRYYEDQMQSPTVRSLEPKKQMTETEKLHHLHDWKKDKEGLTPPPEFGWPEEWGPEPGEEGHSEWYRKNRMYMSYEEKSRYDLRVGVPVEKNSMRHQEMPYQKRMKAAYVNLEEKNPQYFDPRQRKYWAEYSYEDQRDTMAKARDDYIKEWLDEPGVTKENVAKKIGDYNGTAKNQNVKSVQRRPEWELAPRPEYDDD,not soluble
7,MAHHHHHHMRSFMYMCRQVQGARFIQITRSRCGRTIPYKLADIGEGIKEVEVVTLYVKPGDRIGEFEKICEVQSDKATVEITSRYAGVITTVHIEAGEKAHVGEPIVDIEVNDTDETQKPSCGTVDCNVSDQFNNGGVPVAEEGDSCAADCTTEISKDFTKVLATPAVREFARSRGVNITDVKGTGKDGRVLREDVLSYAGKSCYNDDVVVRLDTGLRKAMVSSMTKAGSVPSFTACDEVEVSQLLNFQHILRDALNSSSEGVRDGSKVSLMPLFIKAASQSLLQYPELNAHVSSECDKLFVKKAHHIGFAMDTPKGLVVPVVRDVQQKSVAELVHEVNELVTLGRKSQIPPDRMKDGTFTLSNIGPIGAIYATPMLNPPQVAIGAIGRIQQLPRFDASGNVVRANILAMSWTADHRVIDGATLVRFSNAFKRCLESPGLLIAGEVA,not soluble
8,MAHHHHHHMRSISTGSGANLQKPSWIAQLCSDAQKSEKTISCDVKVYDELSWRRRRFSFDKELWDPARMSSIVRRRLCLGNEEAEYTVIGEAFAFADREDSPVVNEPQHSCKLLWDHNSSVEKLLIQISDHFPPLLWYAVKPTLESLKRIFSEFLDVDAEHMKKNLPYYESVQNAMETSTQERLGVTLSPTSVKDRFVADMRRRDPKDLELDYPCEYSVFLGTSPHFRLVEDRMMKSNPFVFGWPLLLSDGNEHLDGTPLRMAAFRTVYSKSLLMFHTRLDLQVDHRLASSEAGEETLLDVPIFCNINYPKNTRLCGGKPLVQRFNTVMGTTYPLDTPVDILAALAKEQCVKGPNELLEELRFLTAAAERAPDEERVFRISDDQLSANRIVGQLAYTIIYVALVNYDRFIKDVFDVYKTHRSDMVRVACARGASIVGRPDLIEQLISAEREGPCKNMLRGVVTTP,not soluble
9,MAHHHHHHMRVRHKVRNAVLLKGGEADTVKPLFLLNKIKNRKLQKRNNVTLHMDNSNEDTSRLSLLKNLDDESKVITQSPEWNEKMPLLEITNLHAMEVEGGKEILKGINLTIFLGEKHTIMGRNGSGKSTLAKVIAGHPYYKVTSGTIKFKGLNLSELPVNVRSLCGIFLAFQYPVELPMVKNNEFLRAALNSHRRQRNEPEISATEFDLLMIEEIKKVGLSSEFLDRPVNYGFSGGEKKRNEILQMLILKPSFCILDETDSGLDVDSFKLTSNVITNFSNEKNSFLIVTHYKKLLELLRPNFIHIMHQGKIIESGDYSLVDKIEAKGYAQFVKDS,not soluble
10,MAHHHHHHMSDDDDKIYIYSDLFSKNFSDDEKDDSYEREKQVYSGSETQNAENEYSKLRAQNSTILNNYFDNDNIKNVENLKSNDPDQIDLILFPVNKNYYMNLFDGQLIENIHSIKLRKAGFYAIYVENNNNSKWDGIYFGLSRMQVELDYKLITKKNKDGGEYEKRNTSSYDNTESVQNTVGSEKEETENKNEETSNYNSNLNNEINKICKYNLDQTDILLDDSNSERRRNSKFKIKNTNYYDNLMLQNKYTNSILYDDDDDKNNTETYTCTFKTEDQIRVPSQKKKYIYLYNKYDNATLDLNVHTYMSLGMSILCKYSLLYCGKYNHIPRDPYTPFKKPVSILSLDGGGILTISTLLVLNRLEAELRKEIGSDDIKLIDCFDMVCGTSAGGLISLALLREIDLQDVSNMWPSTIKKVFEGNRNIISGIFFEGYDVNNVKDVFLERMGNKFMSSYKKFYCFVTATDVKHKPYKLFLIRNYTHKYNSINAESYDGINKVPLWLAAWATASAPTYLKGPSAEDIKKLGINIKPEIHLVDGALKASNPALIALEECARLNNKNLSTFIKEDLDTLVSIGTGQVPTKLTQSGASSKSASTFEILINSTHLLTRANDTHREVLQRLADRENTYFRFNVPHIGDIEIDSQDVRDFDLISKATQDYLFDEKFYEIKRLAHKLANNYIRSKYL,not soluble
11,MAHHHHHHMSEREHDETPVTAEGSAAAHEGSNMDLNGNESRASYIKTDLGELNMIESMCPKCQETGTTRLMITSIPHFKEIIVSSFECQHCGEVNNEVAFGGTFGPKRVRYELQVRSKQDLDRQVVKSEFATIAIPELELEIPPESQKGNLNTIEGVLEQTYSGLQLQQPLRKIQHPDVYEKIEAFCAKLASFRSGDVPFTLTLDDPAGNSYIEPIHDYYHPTLDPQLTKYEKERTEIDRQLLGIALDYNTERTQEEEKDVEEGQFSDVTQILCDCPACRRPGYIMMHECDIPYFKQTIIMAFKCEYCGYKSNEIKAGGEINAKGLRLVLHVTSEADLKRDVLKSDTATLIIPEVRLELAPGTLGGFFSTVEGTITQVRDQLMNLPQAAFAAGDSADDNSKTMLEFVKELDELLALREEFTFILDDPLGNVYIQNPCSHLPPPDDVDPKLEREEYTRTEEQDEELGILSMRHNEGQAGIEKSEDEADHEGEERNGAAAEEQETQQ,soluble
12,MAHHHHHHMSFKEMRLAFEGSKNIYESSLLTFKGVDGYDVYNCSLLFQYKGKHHLFGRFERREKSSDSRVRLFVETGKDEYTVVPDQLTYQLEDPFVSKVQGSLFFGGTQVIKSGGNVTGYFCDFYHGMPQLLTYYTTGPDLMRSIRIVQLADGTIGIFSCHKTEGSCLIGFTTVNSLNEVTREVIAEAKPINNAPFLGAWGGVNQAYLLSSGNIGCICHHGYLDKDANGEQRNVCCITSFVYDPKRNNTHTFQLIGTRGCFPDCPSKSPSVADCAFASGIVMREDGKCDLYSGLGDTHEGRITIDYPFKGYGTVVNDLVF,soluble
13,MAHHHHHHMSGENIKNLLAPQPTVDQGPYSGKYEKRMVDLPKPTYSTFYNKNKEFDSTHPRYFKQRDAVIGPIVNDTVDPKNFLRTGQGIKHIVPPVPHKKQHRKDFLDCGDIRKRTQGAMEPADQQQKESSGMGGMGSLANTNGVGGQAGDGIREHDMSSNDPERKGEQANGGDTGLRGTGNVESAVGSCDNKNNFQGAATGDNGRCHLNSLDRSRCKKDFVTSNIIDVDNMVPKRRKDQPEDPTRRKTFGRVPGYIGRVKEVIEKERMQLKAIGEARTNNRLERVGKFVYRLDEQERLNMISKLRAKLTEKGAELNRMPFAKDTYIQMKRKSDLEKRIKEIESSLEKLEKDAVFIYSDDPRVVHWTKDAAFEEARLFASD,not soluble
14,MAHHHHHHMSILCTISGQTPEEPVVSKTGYVFEKRLIEKHILNYGICPVSGEVLTLQDLYPLKNEQVVKPRPITASSIPGLLSILQTEWDAIISEMFTLRTHVNDIRNQLTHSLYQYDAATRVIAKLLKEKNDYKEEVKKLRNQILSIKSGNDLNEFEVGLSEDLLNEMQEVAKNLLMTRKKRNIEHVSSAEQWKEVTNTNEFDVHSAAIPGVTCLSLDINELKYSYYDDHKNHSFFSGGMDGNVYYVSLEQSKVLAKLQGHLKKVTAIVAHPKYSLCISGANDKTVRIWKGDVETNEFATAHVIAKHKDQITSLALHPMENYFVSSSKDNVWILNDLETSRSIKICKDTPSPFRQLAIHPDGIMLGIGCEDSNIHIFDMKSQEYKASLSGHTSHVSYISFSENGYYLASCSKDKTVKLWDLRKAQCFQTIDVEELPRSICFDFSGKYLSLAAGNDVHVFNFEAKTKAVLVNTLSAHTDAVTQTCFGSRTAYLLSSSMDKTVKVWS,not soluble
15,MAHHHHHHMSKKERYKIWKRIPKCELHCHLDLCFSADFFVSCIRKYNLQPNLSDEEVLDYYLFAKGGKSLGEFVEKAIKVADIFHDYEVIEDLAKHAVFNKYKEGVVLMEFRYSPTFVAFKYNLDIELIHQAIVKGIKEVVELLDHKIHVALMCIGDTGHEAANIKASADFCLKHKADFVGFDHGGHEVDLKEYKEIFDYVRESGVPLSVHAGEDVTLPNLNTLYSAIQVLKVERIGHGIRVAESQELIDMVKEKNILLEVCPISNVLLKNAKSMDTHPIRQLYDAGVKVSVNSDDPGMFLTNINDDYEELYTHLNFTLEDFMKMNEWALEKSFMDSNIKDKIKNLYF,not soluble
16,MAHHHHHHMSLNAADAADERSRKEMDRFQVERMAGQGTFGTVQLGKEKSTGMSVAIKKVIQDPRFRNRELQIMQDLAVLHHPNIVQLQSYFYTLGERDRRDIYLNVVMEYVPDTLHRCCRNYYRRQVAPPPILIKVFLFQLIRSIGCLHLPSVNVCHRDIKPHNVLVNEADGTLKLCDFGSAKKLSPSEPNVAYICSRYYRAPELIFGNQHYTTSVDIWSVGCIFAEMMLGEPIFRGDNSAGQLHEIVRVLGCPSREVLRKLNPSHTDVDLYNSKGIPWSSVFCDHSLKDAKEAYDLLSALLQYLPEDRMKPYEALCHPYFDELHDSATKLPNNKDLPEDLFRFLPSEIEVMSEAQKAKLVRK,not soluble
